# Biological target: the molecule itself
# Assay: crystal structure; Ets1 280-441 mixed 1:1.05 with TCRα promoter dsDNA; (Ets1)2•2DNA crystals grown at 295 K, space group P2_(1), refined at 3.1 Å; asymmetric unit holds an Ets1 homodimer and two pieces of dsDNA
protein,measurement,value
"Ets1 (residues 280–441) (domain or fragment, UniProt P14921 280-441, looked up, also called Ets1 dimer; source: cloned, expressed and purified according to reported protocols [36]) VPSYDSFDSEDYPAALPNHKPKGTFKDYVRDRADLNKDKPVIPAAALAGYTGSGPIQLWQFLLELLTDKSCQSFISWTGDGWEFKLSDPDEVARRWGKRKNKPKMNYEKLSRGLRYYYDKNIIHKTAGKRYVYRFVCDLQSLLGYTPEELHAMLDVKPDADE",stoichiometry N,2

# Reference: paper PMC3303851, “Structural Basis of Ets1 Cooperative Binding to Widely Separated Sites on Promoter DNA” (PLoS ONE, 2012)
